The values below are quoted from earlier work in article PMC3405059.

One may read the Kd as the equilibrium constant for the complex coming apart.

The data set deals with MSPβ beta chain (Homo sapiens) (UniProt P26927). The data set is described as follows: SPR. (In general: Surface plasmon resonance follows binding to a sensor surface in real time, without labels.)
UniProt P26927, sequence (P26927 484-711): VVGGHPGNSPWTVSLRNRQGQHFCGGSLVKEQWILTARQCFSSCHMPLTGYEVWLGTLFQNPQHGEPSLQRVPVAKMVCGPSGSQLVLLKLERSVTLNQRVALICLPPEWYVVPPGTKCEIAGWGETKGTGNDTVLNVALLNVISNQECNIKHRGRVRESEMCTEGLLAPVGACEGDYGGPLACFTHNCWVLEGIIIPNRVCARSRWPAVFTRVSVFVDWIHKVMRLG

In the case of RON ECD (from UniProt Q04912), the Kd was 13 nM.
